Our source for the ELISA OD450 @ 1 ug/ml and hu:mu ratio values is patent publication US20260008852A1.

The target in experiment [1] is His-tagged mouse B7-H3 (mouse) (UniProt Q8VE98). Nature of the experiment: ELISA, coated His-tagged antigen, scFv-Fc 1 ug/ml. In general terms: An ELISA detects its analyte on a solid surface through an enzyme-linked reagent.
For experiment [2], the target named is His-tagged human B7-H3 (human) (UniProt Q5ZPR3). Nature of the experiment: ELISA, coated His-tagged antigen, scFv-Fc 1 ug/ml.
Experiment [3] has the same target. The experiment is described as follows: ELISA OD450 on hu B7-H3 over OD450 on mu B7-H3.

Sequence of His-tagged human B7-H3 (human) (Q5ZPR3 other isoform, or with tags, fused parts or gaps limits assumed): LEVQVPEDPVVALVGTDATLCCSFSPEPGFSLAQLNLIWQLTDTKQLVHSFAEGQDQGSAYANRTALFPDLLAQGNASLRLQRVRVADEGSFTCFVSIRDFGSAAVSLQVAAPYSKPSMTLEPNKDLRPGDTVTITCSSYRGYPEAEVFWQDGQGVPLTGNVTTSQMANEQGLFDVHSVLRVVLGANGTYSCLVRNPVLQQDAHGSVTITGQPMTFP
Sequence of His-tagged mouse B7-H3 (mouse) (Q8VE98 29-244 limits assumed): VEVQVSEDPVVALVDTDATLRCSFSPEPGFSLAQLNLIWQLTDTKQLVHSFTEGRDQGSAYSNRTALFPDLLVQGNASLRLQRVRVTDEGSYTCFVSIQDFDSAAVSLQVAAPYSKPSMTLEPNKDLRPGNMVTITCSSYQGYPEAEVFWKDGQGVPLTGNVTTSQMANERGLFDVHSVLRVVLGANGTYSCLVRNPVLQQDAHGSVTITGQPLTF

B1: 40633p1.2.C11 (scFv, V domains shown)
VH: EVQLLESGGGLVQPGGSLRLSCAASGFTFSSYWMSWVRQAPGKGLEWVAGINRNGGSTYYADSVKGRFTISRDNSENTLYLQVNSLRAEDTAVYYCARWNDYDIMDVWGQGTTVTVSS
VL: QSVLTQPSSASGTPGQRVTISCSGSSSNVGRRAVNWYQQLPGTAPKLLISNSQRPSGVPDRFSGSKSGTSASLAISGLQSEDEADYYCATWDASLNSWVFGGGTKLTVL
For the molecule B1, the results for the ELISA OD450 @ 1 ug/ml in experiment [1] and in experiment [2] were 0.045 OD450 and 0.049 OD450, respectively. The hu:mu ratio in experiment [3] was found to be 1.09.

B2: 40579p1.H11 (scFv, V domains shown)
VH: EVQLLESGGGLVQPGGSLRLSCAASGFTFDDYGMSWVRQAPGKGLEWVSAIRSKASSYATYYADSVKGRFTVSRDNSENTLYLQMNSLRAEDTAVYYCAKHRSNYYFMDVWGQGTTVTVSS
VL: EIVLTQSPGTLSLSPGERATLSCRASQSVGSDLAWYQQRPGQAPRLLIYAASSRATDIPDRFSGSGSGTDFTLTISSLQSEDFAVYYCQQYYSWPPLTFGGGTKVEIK
Take B2: the ELISA OD450 @ 1 ug/ml in experiment [2] is 0.077 OD450. Further, the hu:mu ratio in experiment [3] was 1.51.
